Columns and labels:
CHD1 WT (human) = assay: EMSA; settings: 5 mM Mg2+, no ATP listed; 10 mM HEPES pH 8.0, 75 mM NaCl, 5 mM MgCl2, 10% glycerol, 1 mM DTT, 0.1 mg/ml BSA; 5 nM nucleosome; 30 min at 30 C; native PAGE
CHD1 deltaNC (human) = assay: EMSA; settings: 5 mM Mg2+, no ATP listed; 10 mM HEPES pH 8.0, 75 mM NaCl, 5 mM MgCl2, 10% glycerol, 1 mM DTT, 0.1 mg/ml BSA; 5 nM nucleosome; 30 min at 30 C; native PAGE
[1] = biological target: unmodified nucleosome (recombinant human histone octamer on Widom 601 DNA) (human) (UniProt P04908); assay: native gel or EMSA; purified CHD1 titrated against 5 nM IR dye-conjugated nucleosome in EMSA buffer (10 mM HEPES pH 8.0, 75 mM NaCl, 5 mM MgCl2, 10% glycerol, 1 mM DTT, 0.1 mg/ml BSA), 30 min at 30 °C, native PAGE; shifted fraction fitted to a dose-response curve

recombinant CHD1^WT protein, sequence (O14646 whole entry): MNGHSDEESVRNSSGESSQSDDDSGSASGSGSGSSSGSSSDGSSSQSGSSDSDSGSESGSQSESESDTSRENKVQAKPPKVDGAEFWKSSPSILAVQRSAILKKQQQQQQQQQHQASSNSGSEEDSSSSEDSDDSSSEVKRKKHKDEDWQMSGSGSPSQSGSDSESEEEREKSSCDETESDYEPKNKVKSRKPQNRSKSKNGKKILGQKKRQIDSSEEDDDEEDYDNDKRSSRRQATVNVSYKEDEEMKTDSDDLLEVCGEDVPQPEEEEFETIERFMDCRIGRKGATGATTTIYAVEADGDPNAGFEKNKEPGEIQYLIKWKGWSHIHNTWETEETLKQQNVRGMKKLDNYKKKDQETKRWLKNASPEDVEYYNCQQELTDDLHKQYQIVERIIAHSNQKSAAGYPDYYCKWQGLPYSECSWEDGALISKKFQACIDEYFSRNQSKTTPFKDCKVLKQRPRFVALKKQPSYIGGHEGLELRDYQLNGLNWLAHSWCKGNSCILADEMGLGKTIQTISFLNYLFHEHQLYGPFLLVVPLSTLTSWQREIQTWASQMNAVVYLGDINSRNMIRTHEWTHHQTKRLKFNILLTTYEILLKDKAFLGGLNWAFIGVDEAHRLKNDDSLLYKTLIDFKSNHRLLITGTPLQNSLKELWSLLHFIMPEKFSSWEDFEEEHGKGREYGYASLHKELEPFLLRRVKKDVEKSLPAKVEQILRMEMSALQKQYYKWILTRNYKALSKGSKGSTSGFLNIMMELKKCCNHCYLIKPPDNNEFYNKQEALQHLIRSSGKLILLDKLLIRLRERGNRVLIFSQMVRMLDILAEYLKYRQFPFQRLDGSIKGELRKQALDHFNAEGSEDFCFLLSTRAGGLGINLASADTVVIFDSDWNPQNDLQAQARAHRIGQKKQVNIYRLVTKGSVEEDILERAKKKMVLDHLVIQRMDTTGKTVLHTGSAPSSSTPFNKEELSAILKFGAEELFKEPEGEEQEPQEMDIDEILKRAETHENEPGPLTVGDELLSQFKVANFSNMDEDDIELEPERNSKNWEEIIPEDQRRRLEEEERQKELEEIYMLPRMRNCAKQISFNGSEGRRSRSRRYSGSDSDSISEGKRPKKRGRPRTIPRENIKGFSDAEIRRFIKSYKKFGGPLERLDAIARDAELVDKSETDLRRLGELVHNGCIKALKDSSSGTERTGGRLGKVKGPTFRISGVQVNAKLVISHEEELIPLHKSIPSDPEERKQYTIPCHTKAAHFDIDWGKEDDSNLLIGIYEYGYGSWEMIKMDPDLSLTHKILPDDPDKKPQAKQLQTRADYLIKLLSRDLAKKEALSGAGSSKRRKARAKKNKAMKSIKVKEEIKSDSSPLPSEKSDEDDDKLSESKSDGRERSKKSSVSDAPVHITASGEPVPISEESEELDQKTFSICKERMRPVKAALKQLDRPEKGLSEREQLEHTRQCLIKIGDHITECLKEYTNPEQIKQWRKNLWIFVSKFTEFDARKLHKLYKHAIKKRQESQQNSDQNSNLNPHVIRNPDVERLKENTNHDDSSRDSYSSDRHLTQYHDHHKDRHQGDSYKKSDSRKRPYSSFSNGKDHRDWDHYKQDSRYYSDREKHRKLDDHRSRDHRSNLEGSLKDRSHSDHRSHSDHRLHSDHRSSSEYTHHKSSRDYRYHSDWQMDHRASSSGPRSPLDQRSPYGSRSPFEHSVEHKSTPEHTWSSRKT

| Kd [1] [nM] | Substance | Kd (CHD1 WT (human)) [nM] | Kd (CHD1 deltaNC (human)) [nM] |
| --- | --- | --- | --- |
|  | Widom 601 nucleosome (unmodified) | 221 | 6.3 |
| 221 | recombinant CHD1^WT protein (from UniProt O14646 1-1710) (natural protein) |  |  |

Source: PMC12575849
